The values below come from publication doi:10.1101/2021.04.07.438849 (bioRxiv, 2021).

The target in this assay is T1, SARS-CoV-2 Wuhan-Hu-1 S-HexaPro-D614G, displayed on HEK293T cells (SARS-CoV-2 Wuhan-Hu-1 with D614G …, UniProt A0A6N0C4S6, D614G).
T1 construct: also called WT (HexaPro-D614G); prefusion stabilized SARS-CoV-2 S D614G
As to the kind of experiment: flow cytometry on cells. Particulars: one partner purified. A general note: In flow cytometry, cells or beads pass a laser one at a time.

B1: A7V3 IgG (antibody, V domains shown)
VH: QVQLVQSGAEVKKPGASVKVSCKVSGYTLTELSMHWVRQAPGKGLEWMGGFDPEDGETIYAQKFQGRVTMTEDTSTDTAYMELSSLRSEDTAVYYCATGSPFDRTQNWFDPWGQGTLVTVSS
VL: QSVVTQPPSVSAAPGQKVTISCSGSSSNIGNNYVSWYQQLPGTAPKLLIYDNNKRPSGIPDRFSGSKSGTSATLGITGLQTGDEADYYCGTWDSSLSAVVFGGGTKLTVL
notes: also called mAb A7V3
With B1, the binding result was “binds”.
